# Assay results published in IntAct's records for PubMed 27309808.
# B1: Sperm-egg fusion protein Juno (Homo sapiens), A6ND01-1 (parent)
# chain: MACWWPLLLELWTVMPTWAGDELLNICMNAKHHKRVPSPEDKLYEECIPWKDNACCTLTTSWEAHLDVSPLYNFSLFHCGLLMPGCRKHFIQAICFYECSPNLGPWIQPVGSLGWEVAPSGQGERVVNVPLCQEDCEEWWEDCRMSYTCKSNWRGGWDWSQGKNRCPKGAQCLPFSHYFPTPADLCEKTWSNSFKASPERRNSGRCLQKWFEPAQGNPNVAVARLFASSAPSWELSYTIMVCSLFLPFLS
# B2: Izumo sperm-egg fusion protein 1 (Homo sapiens), Q8IYV9-1 (parent)
# chain: MGPHFTLLCAALAGCLLPAEGCVICDPSVVLALKSLEKDYLPGHLDAKHHKAMMERVENAVKDFQELSLNEDAYMGVVDEATLQKGSWSLLKDLKRITDSDVKGDLFVKELFWMLHLQKETFATYVARFQKEAYCPNKCGVMLQTLIWCKNCKKEVHACRKSYDCGERNVEVPQMEDMILDCELNWHQASEGLTDYSFYRVWGNNTETLVSKGKEATLTKPMVGPEDAGSYRCELGSVNSSPATIINFHVTVLPKMIKEEKPSPNIVTPGEATTESSISLQPLQPEKMLASRLLGLLICGSLALITGLTFAIFRRRKVIDFIKSSLFGLGSGAAEQTQVPKEKATDSRQQ
# Variants of: B1
# Conditions: with IZUMO1, Q8IYV9-1
row,Variant,effect of a mutation on the interaction
1,L81A,decreasing interaction strength
2,W62A,decreasing interaction strength
3,M83A,decreasing interaction strength

# Variants of: B2
# Conditions: with IZUMO1R
row,Variant,effect of a mutation on the interaction
1,W148A,decreasing interaction strength
